Drawing on article PMC8164090, this text covers recruitment of γ-tubulin to scaffolds in unfertilized eggs, fold over Cnn-C scaffolds for 1 substance.

The experiment deals with Cnn-C^S186D scaffolds (Cnn-C-PReM^m with S186 phosphomimicked) (Drosophila melanogaster).

The substance “γ-tubulin37C-mCherry (from UniProt P42271 1-457) (natural protein)” displayed a recruitment of γ-tubulin to scaffolds in unfertilized eggs, fold over Cnn-C scaffolds of 3.8 fold.
